Assay results published in paper PMC6436931, “Activation of the Endonuclease that Defines mRNA 3′ Ends Requires Incorporation into an 8-Subunit Core Cleavage and Polyadenylation Factor Complex” (Molecular Cell, 2019).

B1: U15 (ssRNA)
RNA: UUUUUUUUUUUUUUU
B2: CYC1d EMSA probe (ssRNA)
RNA: AAGAACGUUAUUUAUAUUUCAAAUUUUUCUUUUUU
B3: CYC1f EMSA probe (ssRNA)
RNA: CGUUAUUUAUAUUUCAAAUUUUUCU
B4: C15 (ssRNA)
RNA: CCCCCCCCCCCCCCC
B5: A15 (ssRNA)
RNA: AAAAAAAAAAAAAAA
B6: G15 (ssRNA)
RNA: GGGGGGGGGGGGGGG

How the values were obtained:
[1] = molecular target: Cft1;Pfs2;Yth1;Fip1;Pap1;Cft2 (Saccharomyces cerevisiae;Saccharomyces …, UniProt Q06632;P42841;Q06102;P45976;P29468;Q12102 1-1357;1-465;1-208;1-327;1-568;1-859, |||||); assay: EMSA; CPFpol + Cft2; EMSA: 50 nM RNA, 0.25-4.0 uM protein, protein diluted in 10 mM HEPES pH 7.9, 150 mM NaCl, 0.5 mM Mg(OAc)2, plus 1x loading dye (orange G, glycerol, EDTA); 30 min on ice; native 6% acrylamide/TBE PAGE; conditions: protein: recombinant;recombinant;recombinant;recombinant;recombinant;recombinant, tags: ;3C-SII;3C-8H, untagged in CPFpol+Cft2;;SII (Pap1-SII) when alone, untagged in CPFpol and CPFcore;SII (Cft2-SII) when alone, copies: 1;2;1;1;1;1, label: 5'-FAM
[2] = molecular target: Cft1;Pfs2;Yth1;Fip1;Pap1;Cft2;Ysh1;Mpe1 (Saccharomyces cerevisiae;Saccharomyces …, UniProt Q06632;P42841;Q06102;P45976;P29468;Q12102;Q06224;P35728 …, |||||||); assay: EMSA; CPFcore; EMSA: 50 nM RNA, 0.25-4.0 uM protein, protein diluted in 10 mM HEPES pH 7.9, 150 mM NaCl, 0.5 mM Mg(OAc)2, plus 1x loading dye (orange G, glycerol, EDTA); 30 min on ice; native 6% acrylamide/TBE PAGE; conditions: tags: ;3C-SII;3C-8H, untagged in CPFpol+Cft2;;SII (Pap1-SII) when alone, untagged in CPFpol and CPFcore;SII (Cft2-SII) when alone, untagged in CPFpol+Cft2 and CPFcore;;3C-SII (C-terminal) in Ysh1-Mpe1 complexes, copies: 1;2;1;1;1;1;1;1, label: 5'-FAM
Rna14;Rna15;Pcf11;Clp1 = Rna14;Rna15;Pcf11;Clp1 (Saccharomyces cerevisiae;Saccharomyces …, UniProt P25298;P25299;P39081;Q08685 1-677;1-296;1-626;1-445, |||); assay: EMSA; CF IA; EMSA: 50 nM RNA, 0.25-4.0 uM protein, protein diluted in 10 mM HEPES pH 7.9, 150 mM NaCl, 0.5 mM Mg(OAc)2, plus 1x loading dye (orange G, glycerol, EDTA); 30 min on ice; native 6% acrylamide/TBE PAGE; conditions: protein: recombinant;recombinant;recombinant;recombinant; tags: 6H;;6H;; chain copies: 2;2;1;1; label: 5'-FAM
Ysh1;Yjr141w = molecular target: T1, Ysh1;Yjr141w (Saccharomyces cerevisiae;Saccharomyces …, UniProt Q06224;P47172 1-779;1-347, |); assay: EMSA; EMSA: 50 nM RNA, 0.25-4.0 uM protein, protein diluted in 10 mM HEPES pH 7.9, 150 mM NaCl, 0.5 mM Mg(OAc)2, plus 1x loading dye (orange G, glycerol, EDTA); 30 min on ice; native 6% acrylamide/TBE PAGE; conditions: protein: recombinant;recombinant; tags: ;SII-3C (N-terminal) in Ysh1-Yjr141w; untagged in Ysh1-Mpe1-Yjr141w; copies: 1;1; label: 5'-FAM
T1 sequence 1: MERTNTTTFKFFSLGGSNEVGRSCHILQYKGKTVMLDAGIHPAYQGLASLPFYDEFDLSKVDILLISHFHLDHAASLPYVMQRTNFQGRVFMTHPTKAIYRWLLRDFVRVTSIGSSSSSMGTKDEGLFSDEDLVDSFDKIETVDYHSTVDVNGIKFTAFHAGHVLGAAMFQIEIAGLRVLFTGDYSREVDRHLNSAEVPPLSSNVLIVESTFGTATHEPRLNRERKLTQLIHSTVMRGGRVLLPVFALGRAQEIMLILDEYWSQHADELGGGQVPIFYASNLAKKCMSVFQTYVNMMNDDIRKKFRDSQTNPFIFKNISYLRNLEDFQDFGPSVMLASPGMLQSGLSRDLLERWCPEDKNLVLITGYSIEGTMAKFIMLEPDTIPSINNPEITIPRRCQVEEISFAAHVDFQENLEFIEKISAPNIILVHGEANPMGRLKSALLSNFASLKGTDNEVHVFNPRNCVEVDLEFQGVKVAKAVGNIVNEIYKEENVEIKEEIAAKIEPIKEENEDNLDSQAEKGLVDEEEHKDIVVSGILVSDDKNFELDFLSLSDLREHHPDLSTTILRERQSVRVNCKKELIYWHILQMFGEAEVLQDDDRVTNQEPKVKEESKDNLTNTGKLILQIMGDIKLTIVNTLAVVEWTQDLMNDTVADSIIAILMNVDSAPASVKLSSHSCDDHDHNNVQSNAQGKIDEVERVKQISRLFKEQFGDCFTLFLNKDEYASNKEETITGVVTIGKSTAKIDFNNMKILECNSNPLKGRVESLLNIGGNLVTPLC
T1 sequence 2: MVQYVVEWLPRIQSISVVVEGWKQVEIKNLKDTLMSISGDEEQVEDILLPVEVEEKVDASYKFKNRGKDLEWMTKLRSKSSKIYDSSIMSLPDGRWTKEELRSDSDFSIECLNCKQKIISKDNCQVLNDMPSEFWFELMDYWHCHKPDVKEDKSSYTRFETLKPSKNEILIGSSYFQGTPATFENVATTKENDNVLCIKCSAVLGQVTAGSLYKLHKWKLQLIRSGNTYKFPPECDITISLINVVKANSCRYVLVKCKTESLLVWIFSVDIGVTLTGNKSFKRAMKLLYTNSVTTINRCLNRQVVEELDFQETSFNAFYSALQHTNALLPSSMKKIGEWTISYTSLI

Pcf11;Clp1 = Pcf11;Clp1 (Saccharomyces cerevisiae;Saccharomyces …, UniProt P39081;Q08685 1-626;1-445, |); assay: as above; conditions: protein: recombinant;recombinant; tags: 6H;; copies: 1;1; label: 5'-FAM
Sequence of Pcf11;Clp1 (P39081 whole entry, chain 1 of 2): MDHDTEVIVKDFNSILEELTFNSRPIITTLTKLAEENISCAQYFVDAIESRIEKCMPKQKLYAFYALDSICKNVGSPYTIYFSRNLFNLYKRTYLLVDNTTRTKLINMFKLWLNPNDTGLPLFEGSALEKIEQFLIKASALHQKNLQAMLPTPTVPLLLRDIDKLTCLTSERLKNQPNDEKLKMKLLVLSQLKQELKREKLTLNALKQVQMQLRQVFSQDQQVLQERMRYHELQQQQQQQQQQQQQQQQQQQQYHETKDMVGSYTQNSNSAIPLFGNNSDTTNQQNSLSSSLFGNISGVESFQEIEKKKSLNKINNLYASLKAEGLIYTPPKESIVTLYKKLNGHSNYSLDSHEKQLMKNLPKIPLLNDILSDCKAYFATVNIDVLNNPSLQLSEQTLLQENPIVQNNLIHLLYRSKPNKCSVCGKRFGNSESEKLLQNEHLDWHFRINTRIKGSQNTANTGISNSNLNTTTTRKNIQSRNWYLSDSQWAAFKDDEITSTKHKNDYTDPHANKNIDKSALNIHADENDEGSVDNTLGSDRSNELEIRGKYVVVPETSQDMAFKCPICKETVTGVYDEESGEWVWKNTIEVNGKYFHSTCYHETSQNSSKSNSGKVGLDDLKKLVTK
Sequence of Pcf11;Clp1 (Q08685 whole entry, chain 2 of 2): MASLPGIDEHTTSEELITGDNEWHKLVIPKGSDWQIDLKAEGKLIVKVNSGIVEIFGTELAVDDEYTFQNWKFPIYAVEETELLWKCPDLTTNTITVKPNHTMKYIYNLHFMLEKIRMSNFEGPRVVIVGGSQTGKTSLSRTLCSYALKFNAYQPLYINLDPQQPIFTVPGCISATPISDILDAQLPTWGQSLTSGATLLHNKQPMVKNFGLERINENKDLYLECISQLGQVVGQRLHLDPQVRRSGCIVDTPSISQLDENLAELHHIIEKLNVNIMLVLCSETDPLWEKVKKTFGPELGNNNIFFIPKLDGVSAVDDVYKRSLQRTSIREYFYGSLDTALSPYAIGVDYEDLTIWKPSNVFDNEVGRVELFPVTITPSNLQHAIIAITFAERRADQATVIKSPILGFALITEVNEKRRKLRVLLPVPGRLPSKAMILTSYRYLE

Sequence of Rna14;Rna15;Pcf11;Clp1 (P25298 whole entry, chain 1 of 4): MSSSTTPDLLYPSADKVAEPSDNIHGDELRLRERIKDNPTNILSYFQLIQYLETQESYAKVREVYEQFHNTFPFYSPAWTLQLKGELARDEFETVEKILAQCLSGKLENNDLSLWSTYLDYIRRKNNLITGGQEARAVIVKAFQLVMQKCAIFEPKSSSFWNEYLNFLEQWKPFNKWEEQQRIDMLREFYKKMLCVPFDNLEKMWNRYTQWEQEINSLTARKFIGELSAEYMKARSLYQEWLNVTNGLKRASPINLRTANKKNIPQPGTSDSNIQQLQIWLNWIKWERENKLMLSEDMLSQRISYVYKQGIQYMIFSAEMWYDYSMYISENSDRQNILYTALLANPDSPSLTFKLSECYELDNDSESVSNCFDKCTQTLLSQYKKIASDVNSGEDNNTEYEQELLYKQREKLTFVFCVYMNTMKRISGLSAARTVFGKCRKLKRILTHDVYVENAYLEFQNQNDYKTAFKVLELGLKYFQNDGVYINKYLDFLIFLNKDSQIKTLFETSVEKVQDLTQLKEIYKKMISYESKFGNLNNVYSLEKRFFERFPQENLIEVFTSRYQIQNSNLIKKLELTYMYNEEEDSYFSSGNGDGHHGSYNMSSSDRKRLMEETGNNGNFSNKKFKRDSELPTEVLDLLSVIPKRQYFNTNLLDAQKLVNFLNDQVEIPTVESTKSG
Sequence of Rna14;Rna15;Pcf11;Clp1 (P25299 whole entry, chain 2 of 4): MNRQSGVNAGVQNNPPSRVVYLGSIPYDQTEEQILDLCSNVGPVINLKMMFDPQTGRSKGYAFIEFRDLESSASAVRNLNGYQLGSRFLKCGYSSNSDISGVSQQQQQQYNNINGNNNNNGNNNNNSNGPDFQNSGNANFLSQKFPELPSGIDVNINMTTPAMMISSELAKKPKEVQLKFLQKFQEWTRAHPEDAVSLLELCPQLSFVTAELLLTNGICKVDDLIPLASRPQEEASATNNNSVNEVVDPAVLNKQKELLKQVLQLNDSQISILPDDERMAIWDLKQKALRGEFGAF
Sequence of Rna14;Rna15;Pcf11;Clp1 (P39081 whole entry, chain 3 of 4): as the sequence (P39081 whole entry, chain 1 of 2) above
Sequence of Rna14;Rna15;Pcf11;Clp1 (Q08685 whole entry, chain 4 of 4): as the sequence (Q08685 whole entry, chain 2 of 2) above

| Binder | binding result [1] | binding result [2] | binding result (Rna14;Rna15;Pcf11;Clp1) | binding result (Ysh1;Yjr141w) | binding result (Pcf11;Clp1) |
| --- | --- | --- | --- | --- | --- |
| B1 | no binding | no binding | binds | no binding | no binding |
| B2 | binds | binds | binds | no binding | binds |
| B3 | binds | binds | binds | no binding | binds |
| B4 | no binding | no binding | no binding | no binding | no binding |
| B5 | binds | binds | no binding | no binding | no binding |
| B6 | binds | binds | binds | no binding | no binding |
